Source: PMC9352680, “A comprehensive thermodynamic model for RNA binding by the Saccharomyces cerevisiae Pumilio protein PUF4”
Substitutions are numbered along the chain they refer to. In names and notes the source's numbering stands.

T1: PUF4 RNA-binding domain (Saccharomyces cerevisiae, UniProt P25339 537-888)
T1 sequence: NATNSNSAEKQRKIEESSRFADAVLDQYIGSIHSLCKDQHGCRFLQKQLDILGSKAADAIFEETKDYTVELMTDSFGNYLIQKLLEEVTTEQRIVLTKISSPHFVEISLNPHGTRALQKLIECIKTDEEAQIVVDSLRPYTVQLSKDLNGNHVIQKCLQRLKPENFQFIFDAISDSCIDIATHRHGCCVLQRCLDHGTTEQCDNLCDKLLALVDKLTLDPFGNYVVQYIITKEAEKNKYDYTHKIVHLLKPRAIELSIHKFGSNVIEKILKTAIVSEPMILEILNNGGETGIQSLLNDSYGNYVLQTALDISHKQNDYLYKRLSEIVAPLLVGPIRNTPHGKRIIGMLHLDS

B1: Id_ii_S3_P5E.4_K5.3_C5.2_H5.3_A5.1_F5.1_T5.2_[A12T] (ssRNA)
RNA: ACAAACCUACACUUAUUAUUACAAAC
B2: Id_ii_S4_P3E.2_K3.1_C3.2_[C-2G]_[T-1G]_H3.1_A3.1_F3.1_T3.2_[T9A]_[A10G] (ssRNA)
RNA: UUUGACAACUGAUCGUUCUUUCUGGUGUAUAUAAGUUCUUUCUCGAUCAGUUGUCUUU
B3: Id_ii_S4_P3E.2_K3.1_C3.2_[C-2G]_[T-1G]_H3.1_A3.1_F3.1_T3.2_[T9A]_[A10T] (ssRNA)
RNA: B2 RNA with G35U
B4: Id_ii_S4_P3E.2_K3.1_C3.2_[C-2G]_[T-1G]_H3.1_A3.1_F3.1_T3.2_[A10T] (ssRNA)
RNA: B2 RNA with A34U, G35U
B5: Id_ii_S4_P3E.2_K3.1_C3.2_[C-2G]_[T-1C]_H3.1_A3.1_F3.1_T3.2_[T9C]_[A10C] (ssRNA)
RNA: B2 RNA with G25C, A34C, G35C
B6: Id_ii_S4_P3E.2_K3.1_C3.2_[C-2G]_[T-1C]_H3.1_A3.1_F3.1_T3.2_[T9C] (ssRNA)
RNA: B2 RNA with G25C, A34C, G35A
B7: Id_ii_S4_P3E.2_K3.1_C3.2_[C-2G]_H3.1_A3.1_F3.1_T3.2_[T9C]_[A10C] (ssRNA)
RNA: B2 RNA with G25U, A34C, G35C
B8: Ib_S1_P5E.1_K5.1_C5.1_H5.1_[T3C]_[A4C]_A5.1_F5.1_T5.1 (ssRNA)
RNA: UCUCUUUGCCUUAUUAUCUCUU
B9: Id_ii_S4_P3E.2_K3.1_C3.2_[C-2G]_H3.1_A3.1_F3.1_T3.2_[T9A]_[A10T] (ssRNA)
RNA: B2 RNA with G25U, G35U
B10: Id_ii_S4_P3E.2_K3.1_C3.2_[C-2G]_H3.1_A3.1_F3.1_T3.2 (ssRNA)
RNA: B2 RNA with G25U, A34U, G35A
B11: Id_ii_S4_P3E.2_K3.1_C3.2_[C-2T]_[T-1G]_H3.1_A3.1_F3.1_T3.2_[T9A]_[A10T] (ssRNA)
RNA: B2 RNA with G24U, G35U
B12: Id_ii_S4_P3E.2_K3.1_C3.2_[C-2T]_[T-1C]_H3.1_A3.1_F3.1_T3.2_[T9G]_[A10T] (ssRNA)
RNA: B2 RNA with G24U, G25C, A34G, G35U
B13: Id_ii_S4_P3E.2_K3.1_C3.2_[C-2T]_[T-1C]_H3.1_A3.1_F3.1_T3.2_[T9C]_[A10T] (ssRNA)
RNA: B2 RNA with G24U, G25C, A34C, G35U
B14: Id_ii_S4_P3E.2_K3.1_C3.2_[C-2T]_[T-1C]_H3.1_A3.1_F3.1_T3.2_[T9C] (ssRNA)
RNA: B2 RNA with G24U, G25C, A34C, G35A
B15: Id_ii_S4_P3E.2_K3.1_C3.2_[C-2T]_[T-1C]_H3.1_A3.1_F3.1_T3.2_[T9A]_[A10C] (ssRNA)
RNA: B2 RNA with G24U, G25C, G35C
B16: Id_ii_S4_P3E.2_K3.1_C3.2_[C-2T]_[T-1C]_H3.1_A3.1_F3.1_T3.2_[T9A]_[A10T] (ssRNA)
RNA: B2 RNA with G24U, G25C, G35U
B17: Id_ii_S4_P3E.2_K3.1_C3.2_[C-2T]_[T-1C]_H3.1_A3.1_F3.1_T3.2_[A10T] (ssRNA)
RNA: B2 RNA with G24U, G25C, A34U, G35U
B18: Id_ii_S4_P3E.2_K3.1_C3.2_[C-2T]_[T-1A]_H3.1_A3.1_F3.1_T3.2_[T9G]_[A10C] (ssRNA)
RNA: B2 RNA with G24U, G25A, A34G, G35C
B19: Ia_S1_P5E.1_K5.1_C5.1_H5.1_A5.1_[T6G]_F5.1_T5.1 (ssRNA)
RNA: UCUCUUUGUAUGAUUAUCUCUU
B20: Ib_S1_P5E.1_K5.1_C5.1_H5.1_[T3C]_[A4T]_A5.1_F5.1_T5.1 (ssRNA)
RNA: UCUCUUUGCUUUAUUAUCUCUU
B21: Id_ii_S4_P3E.2_K3.1_C3.2_[C-2T]_[T-1A]_H3.1_A3.1_F3.1_T3.2_[T9C]_[A10C] (ssRNA)
RNA: B2 RNA with G24U, G25A, A34C, G35C
B22: Id_ii_S4_P3E.2_K3.1_C3.2_[C-2T]_[T-1A]_H3.1_A3.1_F3.1_T3.2_[T9C]_[A10T] (ssRNA)
RNA: B2 RNA with G24U, G25A, A34C, G35U
B23: Id_ii_S4_P3E.2_K3.1_C3.2_[C-2T]_[T-1A]_H3.1_A3.1_F3.1_T3.2_[T9A]_[A10C] (ssRNA)
RNA: B2 RNA with G24U, G25A, G35C
B24: Id_ii_S4_P3E.2_K3.1_C3.2_[C-2T]_[T-1A]_H3.1_A3.1_F3.1_T3.2_[T9A] (ssRNA)
RNA: B2 RNA with G24U, G25A, G35A
B25: Id_ii_S4_P3E.2_K3.1_C3.2_[C-2T]_[T-1A]_H3.1_A3.1_F3.1_T3.2_[A10T] (ssRNA)
RNA: B2 RNA with G24U, G25A, A34U, G35U
B26: Id_ii_S4_P3E.2_K3.1_C3.2_[C-2T]_H3.1_A3.1_F3.1_T3.2_[T9G]_[A10T] (ssRNA)
RNA: B2 RNA with G24U, G25U, A34G, G35U
B27: Id_ii_S4_P3E.2_K3.1_C3.2_[C-2T]_H3.1_A3.1_F3.1_T3.2_[T9C]_[A10C] (ssRNA)
RNA: B2 RNA with G24U, G25U, A34C, G35C
B28: Id_ii_S4_P3E.2_K3.1_C3.2_[C-2T]_H3.1_A3.1_F3.1_T3.2_[T9C]_[A10T] (ssRNA)
RNA: B2 RNA with G24U, G25U, A34C, G35U
B29: Id_ii_S4_P3E.2_K3.1_C3.2_[C-2T]_H3.1_A3.1_F3.1_T3.2_[T9A]_[A10C] (ssRNA)
RNA: B2 RNA with G24U, G25U, G35C
B30: Id_ii_S4_P3E.2_K3.1_C3.2_[C-2T]_H3.1_A3.1_F3.1_T3.2_[T9A] (ssRNA)
RNA: B2 RNA with G24U, G25U, G35A
B31: Ib_S1_P5E.1_K5.1_C5.1_H5.1_[T3A]_[A4C]_A5.1_F5.1_T5.1 (ssRNA)
RNA: UCUCUUUGACUUAUUAUCUCUU
B32: Id_ii_S4_P3E.2_K3.1_C3.2_[C-2T]_H3.1_A3.1_F3.1_T3.2_[A10C] (ssRNA)
RNA: B2 RNA with G24U, G25U, A34U, G35C
B33: Id_ii_S4_P3E.2_K3.1_C3.2_[C-2T]_H3.1_A3.1_F3.1_T3.2_[A10T] (ssRNA)
RNA: B2 RNA with G24U, G25U, A34U, G35U
B34: Id_ii_S4_P3E.2_K3.1_C3.2_[C-2T]_H3.1_A3.1_F3.1_T3.2 (ssRNA)
RNA: B2 RNA with G24U, G25U, A34U, G35A
B35: Id_ii_S4_P3E.2_K3.1_C3.2_[C-2A]_[T-1G]_H3.1_A3.1_F3.1_T3.2_[T9A]_[A10G] (ssRNA)
RNA: B2 RNA with G24A
B36: Id_ii_S4_P3E.2_K3.1_C3.2_[C-2A]_[T-1G]_H3.1_A3.1_F3.1_T3.2_[T9A] (ssRNA)
RNA: B2 RNA with G24A, G35A
B37: Id_ii_S4_P3E.2_K3.1_C3.2_[C-2A]_[T-1C]_H3.1_A3.1_F3.1_T3.2_[T9A]_[A10T] (ssRNA)
RNA: B2 RNA with G24A, G25C, G35U
B38: Id_ii_S4_P3E.2_K3.1_C3.2_[C-2A]_[T-1C]_H3.1_A3.1_F3.1_T3.2_[A10G] (ssRNA)
RNA: B2 RNA with G24A, G25C, A34U
B39: Id_ii_S4_P3E.2_K3.1_C3.2_[C-2A]_[T-1C]_H3.1_A3.1_F3.1_T3.2_[A10C] (ssRNA)
RNA: B2 RNA with G24A, G25C, A34U, G35C
B40: Id_ii_S4_P3E.2_K3.1_C3.2_[C-2A]_[T-1C]_H3.1_A3.1_F3.1_T3.2_[A10T] (ssRNA)
RNA: B2 RNA with G24A, G25C, A34U, G35U
B41: Id_ii_S4_P3E.2_K3.1_C3.2_[C-2A]_[T-1A]_H3.1_A3.1_F3.1_T3.2_[T9A]_[A10G] (ssRNA)
RNA: B2 RNA with G24A, G25A
B42: Ib_S1_P5E.1_K5.1_C5.1_H5.1_[T1C]_A5.1_[T5C]_F5.1_T5.1 (ssRNA)
RNA: UCUCUUCGUACUAUUAUCUCUU
B43: Id_ii_S4_P3E.2_K3.1_C3.2_[C-2A]_[T-1A]_H3.1_A3.1_F3.1_T3.2_[T9A]_[A10C] (ssRNA)
RNA: B2 RNA with G24A, G25A, G35C
B44: Id_ii_S4_P3E.2_K3.1_C3.2_[C-2A]_[T-1A]_H3.1_A3.1_F3.1_T3.2_[A10G] (ssRNA)
RNA: B2 RNA with G24A, G25A, A34U
B45: Id_ii_S4_P3E.2_K3.1_C3.2_[C-2A]_H3.1_A3.1_F3.1_T3.2_[T9A]_[A10G] (ssRNA)
RNA: B2 RNA with G24A, G25U

Target: T1, PUF4 RNA-binding domain
Experiment: Mg; RNA-MaP; 20 mM Na-HEPES pH 7.4, 30 mM KOAc, 0.75 mM MgCl2, 0.1% Tween-20, 5% glycerol, 0.1 mg/mL BSA, 2 mM DTT; 25 C; 0.0125-409.6 nM protein
Conditions: tags: N-His6-TEV cleaved; C-SNAP kept, Cy3B-labelled; label: tethered on chip by stalled RNA polymerase

Row | Binder | Kd [nM]
1 | B1 | > 2300
2 | B2 | 9.31
3 | B3 | 5.5
4 | B4 | 3.9
5 | B5 | 10.5
6 | B6 | 46.9
7 | B7 | 21.8
8 | B8 | > 2300
9 | B9 | 3.41
10 | B10 | 2.31
11 | B11 | 1.68
12 | B12 | 3.63
13 | B13 | 2.78
14 | B14 | 9.13
15 | B15 | 2.96
16 | B16 | 1.51
17 | B17 | 1.29
18 | B18 | 6.05
19 | B19 | 23
20 | B20 | > 2300
21 | B21 | 6
22 | B22 | 6.04
23 | B23 | 15.9

Row | Binder | Kd [nM]
24 | B24 | 20.1
25 | B25 | 5.5
26 | B26 | 2.14
27 | B27 | 2.87
28 | B28 | 2.81
29 | B29 | 4.42
30 | B30 | 6.6
31 | B31 | > 2300
32 | B32 | 1.81
33 | B33 | 1.75
34 | B34 | 2.14
35 | B35 | 9.13
36 | B36 | 10.8
37 | B37 | 2.65
38 | B38 | 39.2
39 | B39 | 2.26
40 | B40 | 2.68
41 | B41 | 13.3
42 | B42 | 592
43 | B43 | 9.36
44 | B44 | 7.52
45 | B45 | 10.2
